In the nanobody polyreactivity screen of Harvey et al. (2022):

Assay: yeast display, Sf9 membrane polyspecificity reagent, FACS + sequencing; frameworks hold sequencing errors
Procedure, shortened: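 Nanobodies from a synthetic yeast display library (Saccharomyces cerevisiae BJ5465), induced 36–48 hours with galactose, were stained 1 hour at 4 °C with 10% biotinylated, detergent-solubilized Sf9 membrane reagent, enriched on streptavidin microbeads, then FACS-sorted. Anti-HA (expression) and streptavidin (reagent binding) fluorescence set low and high (top ~1%) gates. Polyreactivity labels come from the gate of origin. Genes were colony-PCR amplified, MiSeq 2 × 250 sequenced and filtered by CDR length.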

Sequence	polyreactivity (PSR sort gate)
QVQLVESGGGLVQAGGSLRLSCAASGSIFRYNAMGWYRQAPGKERELVAAISLNTGSTYYADSVKGRFTISRDNAKNTVYLQMNSLKPEDTAVYYCNADDYTYATYEYDYWGQGTQVTVSS	low polyreactivity
QVQLVESGGGLVQAGGSLRLSCAASGSIFRYNAMGWYRQAPGKERELVAAITWSGGSTYYADSVKGRFTISRDNAKNTVYLQMNSLKPEDTAVYYCAASPYPHYRRYTGGFYYWGQGTQVTVSS	high polyreactivity
QVQLVESGGGLVQAGGSLRLSCAASGSIFRYNAMGWYRQAPGKERELVAGISWSGGSTYYADSVKGRFTISRDNAKNTVYLQMNSLKPEDTAVYYCATRVGRYWTAGYYWGQGTQVTVSS	high polyreactivity
QVQLVESGGGLVQAGGSLRLSCAASGSIFRYNAMGWYRQAPGKERELVASINAGGGSTYYADSVKGRFTISRDNAKNTVYLLMNSLKPEDTAVYDCAAVAHSATRFRYYWRYDYWGQGTQVTVSS	high polyreactivity
QVQLVESGGGLVQAGGSLRLSCAASGSIFRYNTMGWYRQAPGKERELVASIRIGGSTFYADSVKGRFTISRDNAKNTVYLQMNSLKPEDTAVYYCAVRPYRSAGGSVTRGAYYYWGQGTQVTVSS	high polyreactivity
QVQLVESGGGLVQAGGSLRLSCAASGSIFRYYAMGWYIQAPGKERELVAVITRGGSTYYADSVKGRFTISRDNAKNTVYLQMNSLKPEDTAVYYCAADYWPAGLDRGYWGQGTQVTVSS	low polyreactivity
QVQLVESGGGLVQAGGSLRLSCAASGSIFRYYAMGWYRQAPGKERELVAAISIRGGRTYYADSVKGRFTISRDNAKNTVYLQMNSLKPEDTAVYYCATAFGFTAKYYYWGQGTQVTVSS	high polyreactivity
QVQLVESGGGLVQAGGSLRLSCAASGSIFRYYAMGWYRQAPGKERELVAAISQSGTSTYYADSVKGRFTISRDNAKNTVYLQMNSLKPEDTAVYYCAAYPYYDRDYWGQGTQVTVSS	low polyreactivity
QVQLVESGGGLVQAGGSLRLSCAASGSIFRYYAMGWYRQAPGKERELVAAISSRGGTTHYADSVKGRFTISRDNAKNTVYLQMNSLKPEDTAVYYCAADYYLATNPAPLAAGRGYWGQGTQVTVSS	high polyreactivity
QVQLVESGGGLVQAGGSLRLSCAASGSIFRYYAMGWYRQAPGKERELVAAISWDGGTTYYADSVKGRFTISRDNAKNTVYLQMNSLKPEDPAVYYCNVEFPLSSYGYDYWGQGTQVTVSS	low polyreactivity
QVQLVESGGGLVQAGGSLRLSCAASGSIFRYYAMGWYRQAPGKERELVAAISWSVGGTYYADSVKGRFTISRDNAKNTVYLQMNSLKPEDTAVYYCAADVLYTQYGYWGQGTQVTVSS	low polyreactivity
QVQLVESGGGLVQAGGSLRLSCAASGSIFRYYAMGWYRQAPGKERELVASINSGGSTYYADSVKGRFTISRDNAKNTVYLLMNSLKPEDTAVYYCAAETSYYYRGYWKSYDYWGQGTQVTVSS	high polyreactivity
QVQLVESGGGLVQAGGSLRLSCAASGSIFRYYAMGWYRQAPGKERELVASIRRGDSTYYADSVKGRFTISRDNAKNTVYLQMNSLKPEDTAVYYCAARFFWPQRGGYWGQGTQVTVSS	high polyreactivity
QVQLVESGGGLVQAGGSLRLSCAASGSIFRYYTMGWYRQAPGKERELVAAISWSGGSTYYADSVKGRFTISRDNAKNTVYLQMNSLKPEDTPVYYCNAVSFAYNPYSGTYDYRGQGTQVTVSS	high polyreactivity
QVQLVESGGGLVQAGGSLRLSCAASGSIFRYYVMGWYRQAPGKERELVAAISGGSTYYADSVKGRFTISRDNAKNTVYLQMNSLKPEDTAVYYCAAEQWSTGYYYWGQGTQVTVSS	high polyreactivity
QVQLVESGGGLVQAGGSLRLSCAASGSIFSANAMGWYRQAPGKERELVAAISSSGNTNYSDSVKWRFTISRDNAKNTFYLQMNSLKPEDTAVYYCAVELKQVTPGLGYITLDYWGQGTQVTVSS	low polyreactivity

Sequence	polyreactivity (PSR sort gate)
QVQLVESGGGLVQAGGSLRLSCAASGSIFSANTMGWYRQAPGNEREFVAGITTSAGRTDYADSVKGRFTISRDNAKNTVYVQMNSLKPEDTAVYYCNADRRYYYHYRRYWYDYWGQGTQVTVSS	high polyreactivity
QVQLVESGGGLVQAGGSLRLSCAASGSIFSANVMGWYRQAPGTERELVAAIRRGGTTYYADSVKGRFTISRDNAKNTVYLQMNSLKPEDTAVYYCATDGIFGSYLRFEVAYDYWGQGTQVTVSS	low polyreactivity
QVQLVESGGGLVQAGGSLRLSCAASGSIFSAYAMGWYRQAPGKERELVAAISWRTGRTYYADSVKGRFTISRDNAKNTVYLQMNSLKPEDTAVYYCAVVLGVRPYDKHDYWGQGTQVTVSS	high polyreactivity
QVQLVESGGGLVQAGGSLRLSCAASGSIFSDNAMGWYRQAPGKERELVAAITWSGGSTYYADSVKGRFTISRDNAKNTVYLQMNSLKPEDTAVYYCAADGDYYWYYHGTYDYWGQGTQVTVSS	low polyreactivity
QVQLVESGGGLVQAGGSLRLSCAASGSIFSDNAMGWYRQAPGKERELVASITNSGSTNYADSVKGRFTISRDNAKNTVYLQMNSLKPEDTAVYYCAFSFLYTYDYWGQGTQVTVSS	low polyreactivity
QVQLVESGGGLVQAGGSLRLSCAASGSIFSDYAMGWYRQAPGKETELVAGISSGGGTTYADSVKGRFTISRDNAKNTVYLQMNSLKPEDTAVYYCNKQDQPVGRSGYPYGYDYWGQGTQVTVSS	low polyreactivity
QVQLVESGGGLVQAGGSLRLSCAASGSIFSFNAMGWYRQAPGKERELVAAITTSGGSTYADSVKGLFTISRDNAKNTVYLQMNSLKPEDTAVYYCAVVGEVEGYYWDDYWGQGTKVTVSS	low polyreactivity
QVQLVESGGGLVQAGGSLRLSCAASGSIFSFYAMGWYRQAPGKERELVAAISWSGGSTYYADSVKGRFTISRDNAKNTVYLQMNSLKPEDTAVYYCAADYYYGTYDYWGQGTQVTVST	low polyreactivity
QVQLVESGGGLVQAGGSLRLSCAASGSIFSFYAMGWYRQAPGKERELVAAITSDGSTDYADSVKGRFTISRDNAKNTVYLQMNSLKPEDTAVYYCAADYIVRVVSRYRYGYEYWGQGTQVTVSL	low polyreactivity
QVQLVESGGGLVQAGGSLRLSCAASGSIFSFYAMGWYRQAPGKERELVAGIDISGGSTYYADSVKGRFTISRDNAKNTVYLQMNSLKPEDTAVYYCAAAKRTDYFYFVAKSGFRYYSWGQGTQVTVSS	high polyreactivity
QVQLVESGGGLVQAGGSLRLSCAASGSIFSFYAMGWYRQAPGKERELVASITRRGGSTSYADSVKGRFTISRDNAKNTVYLQMNSLKPEDTAVYYCATESKFISVQRVGYYYVKFDYWGQGTQVTVSS	high polyreactivity
QVQLVESGGGLVQAGGSLRLSCAASGSIFSFYTMGWYRQAPGKERELVASSTTYADSVKGRFTISRDNAKNTVYLQMNSLQPEDTAVYYCATRHPARRDYWGQGTQVTVSS	low polyreactivity
QVQLVESGGGLVQAGGSLRLSCAASGSIFSFYTMGWYRQAPGKERELVATISWRSGSTYYADSVKGRFTISRDNAKNTVYLQMNSLKPEDTAVYYCARSTSRYYYWGQGTQVTVSS	high polyreactivity
QVQLVESGGGLVQAGGSLRLSCAASGSIFSGNAMGWYRQAAGKERELVAVITYRSSRTYYADSVKGRFTISRDNAKNTVYLQMNSLKPEDTAVYYCAAYSNRVVKGYGYWGQGTQVTVSS	high polyreactivity
QVQLVESGGGLVQAGGSLRLSCAASGSIFSGNAMGWYRQAPGKERELVAAIDWSGDSTYYADSVKGRFTISRDNAKNTVYLQMNSLKPEDTAVYYCNTVSFSWGYSAYDYWGQGTQVTVSS	low polyreactivity
